The record followed here is patent publication US20120045393A1 (priority 2009, published 2012).

Read-outs that look alike come from different tables or passages of the source. Non-standard residues stand in square brackets, D forms with d. DO3A10CM = not defined here; Bpa4 = non-natural residue; Amfe4 = not defined here; azaGly = NNC(=O)O; Sar = CNCC(=O)O

One experiment relates to EFO-27 cells. In words: Internalization/efflux studies in EFO-27 cells. In kind it is cell-based, human. To be noted: for Cell associated activity at 0 h % Intern / Cell associated activity at 2 h % Intern: internalized; for Cell associated activity at 0 h % Memb / Cell associated activity at 2 h % Memb: membrane bound; for Bound %: of added; for Bound: per well. As for the experimental part: Internalization/Efflux Studies: The internalization and efflux studies were carried out following the general procedure. Basically, ^177Lu-LHRH II or ^125I-LHRH II ([^125I-Tyr^8]BRU-2477) (75 uL, 3.0 μCi/mL) was added to the EFO-27 or PC-3 cells. The cells were incubated for 40 min at 37° C. The unbound radioactivity was washed off (4×). Following addition of fresh medium, the cells were further incubated for up to 2 h. At various time points (15, 30, 60 & 120 min) the distribution of radioactivity (membrane-bound, internalized, and efflux) was determined
The internalization and efflux of several Lu-177 labeled LHRH II analogs in EFO-27 cells have been investigated. Basically, following pre-incubation of cells with ^177Lu-LHRH II samples, the binding buffer containing the ^177Lu was replaced with fresh media without complex. The extent of initial internalization (T=0), the amount of radioactive material that remained internalized and the efflux at 0-120 min were determined. The results are shown in FIGS. 21a-f and 22a-c and in Table 25.

The test system of experiment [1] is LHRH binding sites on human ovarian cancer cells (EFO-27).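 Also: Cell-associated radioactivity on confluent EFO-27 monolayers in 96-well plates, measured by microplate scintillation counting.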
Experiment [2] has as its target LHRH receptor (LHRH binding sites) on EFO-27 human ovarian cancer cells (human). In words: competition with [125I-Tyr8]BRU-2477 for binding to EFO-27 cells.
For experiment [3] the target is unchanged. The experiment can be described thus: competition with [125I-Tyr8]BRU-2477, EFO-27 cells.
Experiment [4] has as its target LHRH binding sites on EFO-27 human ovarian cancer cells (human). The experiment can be described thus: competition with [125I-Tyr8]BRU-2477 on EFO-27 cells.

With `N=C(N)NCCC[C@H](NC(=O)[C@@H](Cc1ccc2ccccc2c1)NC(=O)CN1CCN(CC(=O)O)CCN(CC(=O)O)CCN(CC(=O)O)CC1)C(=O)N[C@@H](Cc1c[nH]c2ccccc12)C(=O)N[C@@H](CO)C(=O)N[C@@H](Cc1c[nH]cn1)C(=O)N[C@H](CCCNC(=N)N)C(=O)N[C@@H](Cc1c[nH]c2ccccc12)C(=O)N[C@@H](Cc1ccc(C(=O)c2ccccc2)cc1)C(=O)N1CCC[C@H]1C(=O)NCCOCCN` [BRU-2968, DO3A10CM-Dna12-Arg-Trp-Ser-His-Darg-Trp-Bpa4-Pro-Da15o3pt], in the experiment with EFO-27 cells, the “Cell associated activity at 0 h % Efflux” value is listed as 4.9%, the “Cell associated activity at 0 h % Intern” value is recorded as 14.1%, the “Cell associated activity at 0 h % Memb” value was 80.8% and the “Cell associated activity at 2 h % Efflux” value is recorded as 52.9%. For the same molecule, in the experiment with EFO-27 cells, the “Cell associated activity at 2 h % Intern” value is reported as 9.0%, the “Cell associated activity at 2 h % Memb” value is 38.1%, the Bound % turned out to be 23.59% and the Bound is 68.8 fmol. Moreover, in experiment [1], a half-maximal response (EC50) required 240 nM.
With “BRU-2756: DO3A10CM LHRH-II analog prepared in house for Lu labeling (DO3A10CM-[Sar][Amfe4]WSH[dR]W[Bpa4]P[azaGly]-NH2; reading uncertain)”, in the experiment on EFO-27 cells, the “Cell associated activity at 0 h % Efflux” value was 7.7%, the “Cell associated activity at 0 h % Intern” value came to 42.0%, the “Cell associated activity at 0 h % Memb” value amounted to 51.5% and the “Cell associated activity at 2 h % Efflux” value was found to be 82.5%. Besides, in the experiment with EFO-27 cells, the “Cell associated activity at 2 h % Intern” value is given as 9.9%, the “Cell associated activity at 2 h % Memb” value is on record as 7.4%, the Bound % is given as 5.10% and the Bound was determined as 10.2 fmol. In addition, the EC50 (as a rule, the concentration needed to bring the measured effect to its halfway point) in experiment [1] (Table 5: modifications of amino acids at positions 1 and 2, in vitro binding on EFO-27 cells) is 280 nM.
“DO3A10CM-Adoa-Sar-His-Trp-Ser-His-Darg-Trp-Bpa4-Pro-azaGly-NH2 (Seq111) (peptide)” came in with an EC50 in experiment [2] of 3300 nM.
`N=C(N)NCCC[C@@H](NC(=O)[C@H](Cc1c[nH]cn1)NC(=O)[C@H](CO)NC(=O)[C@H](Cc1c[nH]c2ccccc12)NC(=O)[C@H](Cc1c[nH]cn1)NC(=O)[C@@H](Cc1ccc2ccccc2c1)NC(=O)CN1CCN(CC(=O)O)CCN(CC(=O)O)CCN(CC(=O)O)CC1)C(=O)N[C@@H](Cc1c[nH]c2ccccc12)C(=O)N[C@@H](Cc1ccc(C(=O)c2ccccc2)cc1)C(=O)N1CCC[C@H]1C(=O)NNC(N)=O` [BRU-2666]: in the experiment with EFO-27 cells, the “Cell associated activity at 0 h % Efflux” value came to 5.5%, the “Cell associated activity at 0 h % Intern” value amounted to 43.6%, the “Cell associated activity at 0 h % Memb” value stood at 50.3% and the “Cell associated activity at 2 h % Efflux” value is reported as 80.6%. For the same molecule, in the experiment with EFO-27 cells, the “Cell associated activity at 2 h % Intern” value was determined as 10.0%, the “Cell associated activity at 2 h % Memb” value was 9.5%, the Bound % turned out to be 12.20% and the Bound came out at 25.0 fmol. In experiment [1], this molecule had an EC50 of 470 nM. For the same molecule, the “times more potent than the comparator analog” value in experiment [1] (BRU-2441 vs BRU-2439, BRU-2666 vs Sar1 analog, BRU-3072 vs Pro9 analog) is given as 2.
For the molecule XRWSHXWXP (as printed: Dnal2-R-W-S-H-Darg-W-Bpa4-P-Da15o3pt-DO3A10CM (C-terminal chelator)) [BRU-2991], the EC50 in experiment [3] and in experiment [2] was 210 nM throughout.

B1: BRU-2733 (peptide)
peptide: GHWSHXWXPX
modifications: as printed: DO3A10CM-Gly-His-Trp-Ser-His-Darg-Trp-Bpa4-Pro-azaGly-NH2 (Gly is AA1)
For B1, the EC50 in experiment [2] stood at 1180 nM.

B2: BRU-2992 (peptide)
peptide: XRWSHXWXP
modifications: Ac-Dnal2 at 1; Darg at 6; Bpa4 at 8; C-terminal Da15o3pt linker carrying DO3A10CM
As for B2, the EC50 in experiment [3] and in experiment [2] was 470 nM in each case.
XHWSHXWXPX (DO3A10CM on N-terminus; AA1 Sar; AA6 Darg; AA8 Bpa4; AA10 azaGly-NH2) [BRU-2443]: the EC50 in experiment [2] and in experiment [4] was 950 nM throughout. This molecule also gave a fold improvement of EC50 against the Tyr8 analog (BRU-2758) in experiment [4] of 10 fold.

B3: BRU-2896 (peptide)
peptide: XHWSHXWXPX
modifications: as printed: DO3A10CM-Adoa-Adoa-Sar-His-Trp-Ser-His-Darg-Trp-Bpa4-Pro-azaGly-NH2 (Adoa-Adoa is the linker)
In experiment [2], B3 yielded an EC50 of 3200 nM.
In the case of XRWSHXWXP (as printed: Sar-R-W-S-H-Darg-W-Bpa4-P-Dabt14-DO3A10CM (C-terminal chelator)) [BRU-3041], the EC50 in experiment [3] and in experiment [2] was 360 nM each time.

B4: BRU-3099 (peptide)
peptide: XXRWSHXWXPX
modifications: N-terminal DO3A10CM; Dlys linker before 1; Dnal2 at 1; Darg at 6; Bpa4 at 8; azaGly-NH2 at 10
As for B4, the EC50 in experiment [3] and in experiment [2] was 440 nM throughout.
On to XRWSHXWXP (as printed: Sar-R-W-S-H-Darg-W-Bpa4-P-Maz4dahp17-DO3A10CM (C-terminal chelator)) [BRU-3045], for which the EC50 in experiment [3] and in experiment [2] was 210 nM throughout.

B5: BRU-3073 (peptide)
peptide: XRWSHXWXPP
modifications: as printed: Sar-R-W-S-H-Darg-W-Bpa4-P-P-Az23po-Da15o3pt-DO3A10CM (C-terminal chelator)
Consider B5, for which the EC50 in experiment [2] was found to be 840 nM.
The same measure, in the same setting: then XRWSHXWXP (as printed: Sar-R-W-S-H-Darg-W-Bpa4-P-Daprp13-DO3A10CM (C-terminal chelator)) [BRU-3076], with 750 nM.

B6: BRU-2795 (peptide)
peptide: GGHWSHXWXPX
modifications: as printed: DO3A10CM-Gly-Gly-His-Trp-Ser-His-Darg-Trp-Bpa4-Pro-azaGly-NH2 (first Gly is the linker)
As to B6, the EC50 in experiment [2] amounted to 1370 nM. This EC50 is about 1.8-fold higher than that of the molecule before.
In the case of XRWSHXWXP (as printed: Sar-R-W-S-H-Darg-W-Bpa4-P-Da18o36oc-DO3A10CM (C-terminal chelator)) [BRU-3043], the EC50 in experiment [3] and in experiment [2] was 330 nM throughout.

B7: BRU-2727 (peptide)
peptide: XXHWSHXWXPX
modifications: as printed: DO3A10CM-Ambz4-Sar-His-Trp-Ser-His-Darg-Trp-Bpa4-Pro-azaGly-NH2 (Ambz4 is the linker)
B7 returned an EC50 in experiment [2] of 650 nM. This counts as sub-micromolar.

B8: BRU-3097 (peptide)
peptide: KXRWSHXWXPX
modifications: N-terminal DO3A10CM; Lys linker before 1; Dnal2 at 1; Darg at 6; Bpa4 at 8; azaGly-NH2 at 10
Take B8: the EC50 in experiment [3] and in experiment [2] was 450 nM in each case.

B9: BRU-2717 (peptide)
peptide: GXHWSHXWXPX
modifications: as printed: DO3A10CM-Gly-Sar-His-Trp-Ser-His-Darg-Trp-Bpa4-Pro-azaGly-NH2 (Gly is the linker)
On to B9, for which the EC50 in experiment [2] amounted to 1530 nM; in experiment [4], 1550 nM.
The molecule XHWSHXWXP (as printed: Sar-H-W-S-H-Darg-W-Bpa4-P-Dae-DO3A10CM (C-terminal chelator)) [BRU-3079] had an EC50 in experiment [2] of 590 nM.

B10: BRU-3096 (peptide)
peptide: XXRWSHXWXPX
modifications: N-terminal DO3A10CM; Dap linker before 1; Dnal2 at 1; Darg at 6; Bpa4 at 8; azaGly-NH2 at 10
Consider B10, for which the EC50 in experiment [3] and in experiment [2] was 370 nM in each case.

B11: BRU-3002 (peptide)
peptide: XXRWSHXWXPX
modifications: N-terminal DO3A10CM; Gly-Abz4 linker before 1; Dnal2 at 1; Darg at 6; Bpa4 at 8; azaGly-NH2 at 10
For the molecule B11, the EC50 in experiment [3] and in experiment [2] was 500 nM throughout.
As to XRWSHXWXP (as printed: Sar-R-W-S-H-Darg-W-Bpa4-P-bap14p-DO3A10CM (C-terminal chelator)) [BRU-3044], the EC50 in experiment [3] and in experiment [2] was 240 nM in each case.
In experiment [2], XRWSHXWXP (AA1 Sar; AA6 Darg; AA8 Bpa4; C-terminal Pro9-NHNH-DO3A10CM) [BRU-3074] displayed an EC50 of 1480 nM. Also, in experiment [4], the fold reduced binding against peptide 18 (BRU-3103) fell in the range of 5 to 6 fold.
Turning to XRWSHXWXP (as printed: Sar-R-W-S-H-Darg-W-Bpa4-P-Da15o3pt-DO3A10CM (C-terminal chelator)) [BRU-3039], the EC50 in experiment [3] and in experiment [2] was 280 nM each time.
On to XRWSHXWXPG (as printed: Dnal2-R-W-S-H-Darg-W-Bpa4-P-G-Dabt14-DO3A10CM (C-terminal chelator)) [BRU-2990], for which, in experiment [2], the 50% effective concentration (EC50) worked out at 30200 nM.
For XRWSHXWXP (as printed: Dnal2-R-W-S-H-Darg-W-Bpa4-P-Dabt14-DO3A10CM (C-terminal chelator)) [BRU-3042], the EC50 in experiment [3] and in experiment [2] was 200 nM each time.

B12: BRU-3100 (peptide)
peptide: XRWSHXWXP
modifications: N-terminal DO3A10CM; Da48oa linker before 1; Dnal2 at 1; Darg at 6; Bpa4 at 8; C-terminal Da15o3pt at 10
Turning to B12, the EC50 in experiment [3] and in experiment [2] was 140 nM each time.
Regarding XRWSHXWXP (as printed: Sar-R-W-S-H-Darg-W-Bpa4-P-Bampy26-DO3A10CM (C-terminal chelator)) [BRU-3080], the EC50 in experiment [3] and in experiment [2] was 230 nM in each case.
The molecule XRWSHXWXP (AA1 Sar; AA6 Darg; AA8 Bpa4; C-terminal Pro9-M1daprp13-DO3A10CM) [BRU-3086] registered an EC50 in experiment [2] of 1020 nM. In experiment [4], this molecule gave a fold reduced binding against peptide 18 (BRU-3103) of 5 to 6 fold.
